Measured values from article PMC2853111.
Like-named read-outs stand apart in the source and are kept apart here.

Experiments:
[1] = molecular target: T1, estrogen receptor alpha (rERα, NR3A1) (UniProt P03372 1-595); assay: EMSA
[2] = molecular target: T1, estrogen receptor alpha (rERα, NR3A1); assay: EMSA; remark: listed apart in the source

T1 sequence (P03372 whole entry): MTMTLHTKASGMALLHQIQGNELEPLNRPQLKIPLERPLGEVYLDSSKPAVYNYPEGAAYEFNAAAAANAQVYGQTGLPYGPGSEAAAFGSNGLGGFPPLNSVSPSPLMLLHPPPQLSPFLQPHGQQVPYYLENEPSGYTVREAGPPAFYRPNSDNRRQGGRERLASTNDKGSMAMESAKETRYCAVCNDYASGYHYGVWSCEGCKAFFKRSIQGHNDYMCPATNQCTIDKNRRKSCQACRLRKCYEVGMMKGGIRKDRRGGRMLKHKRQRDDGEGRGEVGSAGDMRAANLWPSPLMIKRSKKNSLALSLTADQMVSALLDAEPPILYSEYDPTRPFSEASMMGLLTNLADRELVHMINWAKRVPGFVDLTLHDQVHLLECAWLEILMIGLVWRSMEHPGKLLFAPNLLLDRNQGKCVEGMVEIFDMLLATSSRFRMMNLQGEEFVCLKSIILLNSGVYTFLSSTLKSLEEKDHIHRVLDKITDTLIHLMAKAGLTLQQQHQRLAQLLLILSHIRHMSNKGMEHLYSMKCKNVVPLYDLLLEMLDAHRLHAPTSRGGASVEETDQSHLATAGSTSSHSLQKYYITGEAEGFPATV

Binder | binding result [1] | binding result [2]
consensus ERE probe (ERE-EMSA) (dsDNA) DNA 1: GGATCTAGGTCACTGTGACCCCGGATC DNA 2: GATCCGGGGTCACAGTGACCTAGATCC | binds | –
B68 ERE probe (3' ERE, MIRb) (dsDNA) DNA 1: TTTCTGGGTCACACCGACCTGAGCT DNA 2: AGCTCAGGTCGGTGTGACCCAGAAA | – | binds
D66 ERE probe (5' ERE, MIRb) (dsDNA) DNA 1: CACCCAGGTCAGTCTGACATCTAAG DNA 2: CTTAGATGTCAGACTGACCTGGGTG | – | binds
